Test results as given in publication PMC8561740.

Target: bovine thyroglobulin (natively iodinated) (bovine) (UniProt P01267)
Assay: cryo-EM structure; single-particle cryoEM; Tg at 7 mg/ml in 10 mM HEPES pH 7.4, 100 mM NaCl with 0.2% (w/v) CHAPS; vitrified at 4°C; C2 symmetry expansion, focused refinements

- stoichiometry N: 2
Substance: bovine thyroglobulin (natively iodinated) (from UniProt P01267 20-2769) (natural protein)
